The values below come from PMC11315929, “A novel role for the peptidyl-prolyl cis-trans isomerase Cyclophilin A in DNA-repair following replication fork stalling via the MRE11-RAD50-NBS1 complex” (EMBO Reports, 2024).

The target of the assay is T1, recombinant human Strep-tagged CYPA (human, UniProt P62937 1-165).
T1 construct: Cyclophilin A (CYPA, PPIA), human; The methods also call such proteins Streptavidin-tagged; also called CYPA-Strep; source: E. coli BL21(DE3), purified (Strep-Tactin Superflow Plus cartridge, PD10 desalting)
The assay can be described thus: pull-down; recombinant Strep-tagged CYPA and HIS-tagged FHA-BRCT1 combined, 30 min 4 °C; MagStrep type3 XT beads 1 h 4 °C in 100 mM Tris-Cl pH 8, 150 mM NaCl, 1 mM EDTA, 0.5 mg/ml BSA; elution with 50 mM biotin; western blot; beads alone as control. Conditions: both partners purified. Background: A western blot detects proteins with antibodies after separation by electrophoresis.

T1 sequence (P62937 whole entry): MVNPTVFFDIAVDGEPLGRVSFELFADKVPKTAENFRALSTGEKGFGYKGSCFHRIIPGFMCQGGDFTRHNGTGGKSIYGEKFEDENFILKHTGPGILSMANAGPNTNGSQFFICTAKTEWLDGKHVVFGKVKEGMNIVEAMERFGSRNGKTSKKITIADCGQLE

B1: recombinant HIS-tagged human NBS1 peptide composed of FHA-linker-BRCT1 (aa 1-182), wild type (domain or fragment, UniProt O60934 1-182, looked up)
chain: MWKLLPAAGPAGGEPYRLLTGVEYVVGRKNCAILIENDQSISRNHAVLTANFSVTNLSQTDEIPVLTLKDNSKYGTFVNEEKMQNGFSRTLKSGDGITFGVFGSKFRIEYEPLVACSSCLDVSGKTALNQAILQLGGFTVNNWTEECTHLVMVSVKVTIKTICALICGRPIVKPEYFTEFLK
notes: NBS1 (nibrin), human, UniProt O60934, FHA-linker-BRCT1, aa 1-182; also called WT HIS-tagged FHA-BRCT1; NBS1 FHA-BRCT1 peptide; source: E. coli BL21(DE3), purified (HiTrap TALON Crude, PD10 desalting)
As to B1, the binding result is recorded as “binds”.
